This note sets out measurements from US20230304022, “CHIMERIC POLYPEPTIDES HAVING TARGETED BINDING SPECIFICITY” (The Scripps Research Institute, published 2023).

Some targets named below: Avr15 TALE NTD SSR (synthetic, UniProt Q56830 SEQ:151-834, K230S,Q231S,W232R (KQW to SSR)); Avr15 TALE NTD SRC (synthetic, UniProt Q56830 SEQ:151-834, K230S,Q231R,W232C (KQW to SRC)); Avr15 TALE NTD KRSNG (synthetic, UniProt Q56830 SEQ:151-834, Q231R,W232S,S233N (KQWSG to KRSNG)); Avr15 TALE NTD PKD (synthetic, UniProt Q56830 SEQ:151-834, K230P,Q231K,W232D (KQW to PKD)); Avr15 TALE NTD PTR (synthetic, UniProt Q56830 SEQ:151-834, K230P,Q231T,W232R (KQW to PTR)).

B1: G-Avr15 site (dsDNA)
DNA 1: GATAAACCCCCTCCAA
DNA 2: TTGGAGGGGGTTTATC
As to B1, the binding result with Avr15 TALE NTD SSR, with Avr15 TALE NTD SRC and in the series with Avr15 TALE NTD KRSNG was “binds” in each case.

B2: A-Avr15 site (dsDNA)
DNA 1: AATAAACCCCCTCCAA
DNA 2: TTGGAGGGGGTTTATT
For the molecule B2, the binding result in the series with Avr15 TALE NTD PKD and with Avr15 TALE NTD PTR was “binds” throughout.
